The numbers were not newly measured in publication PMC4893024, which cites them from elsewhere.

This data set addresses Cys39 (UniProt position 39, TSPYECGFDPM). Nature of the data set: not stated (the cited study [29] is described as SH-reagent sensitivity/labelling of bovine heart SMP with N-ethylmaleimide and N-fluorescein maleimide). Particulars: Deactive (D) form of complex I, with Cys-39 exposed.

In the case of “NADH-ubiquinone oxidoreductase chain 3 (ND3 subunit of mitochondrial complex I) (Bos taurus)”, the pKa was 10.2.
